Consider two molecules from patent US20140072613A1 (published 2014).

Among the targets are IR(h), activated (human, UniProt P06213 1005-1310, limits assumed); p70S6K(h) (human, UniProt P23443 1-421); PDGFRα(D842V)(h) (human, UniProt P16234 550-1089, limits assumed); Pyk2 (h) (human, UniProt Q14289 1-1009, limits assumed); SIK(h) (human, UniProt P57059 1-783, limits assumed); CLK2(h) (human, UniProt P49760 1-499, limits assumed); cKit(h) (human, UniProt P10721 544-976); FGFR1(h) (human, UniProt P11362 456-765, limits assumed); FGFR2(h) (human, UniProt P21802 456-770, limits assumed).

Assay in all cases: cell-based or functional assay
A further test has as its target T1, Fms(Y969C)(h) (human, UniProt P07333 538-972, limits assumed).
T1 sequence (looked up): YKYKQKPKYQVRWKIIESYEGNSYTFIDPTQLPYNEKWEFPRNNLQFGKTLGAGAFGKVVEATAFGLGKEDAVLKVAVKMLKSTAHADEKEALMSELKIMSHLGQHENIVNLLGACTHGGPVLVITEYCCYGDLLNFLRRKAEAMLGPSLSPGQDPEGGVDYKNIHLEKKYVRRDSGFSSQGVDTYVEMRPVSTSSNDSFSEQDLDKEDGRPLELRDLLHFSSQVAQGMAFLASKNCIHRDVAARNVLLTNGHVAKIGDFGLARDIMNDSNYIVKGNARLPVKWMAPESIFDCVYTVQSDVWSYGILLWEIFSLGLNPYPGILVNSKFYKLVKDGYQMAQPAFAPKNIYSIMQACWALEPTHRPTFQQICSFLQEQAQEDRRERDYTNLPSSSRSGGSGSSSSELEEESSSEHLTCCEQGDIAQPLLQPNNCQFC

Another test has as its target T2, NEK2(h) (human, UniProt P51955 1-445).
T2 sequence (looked up): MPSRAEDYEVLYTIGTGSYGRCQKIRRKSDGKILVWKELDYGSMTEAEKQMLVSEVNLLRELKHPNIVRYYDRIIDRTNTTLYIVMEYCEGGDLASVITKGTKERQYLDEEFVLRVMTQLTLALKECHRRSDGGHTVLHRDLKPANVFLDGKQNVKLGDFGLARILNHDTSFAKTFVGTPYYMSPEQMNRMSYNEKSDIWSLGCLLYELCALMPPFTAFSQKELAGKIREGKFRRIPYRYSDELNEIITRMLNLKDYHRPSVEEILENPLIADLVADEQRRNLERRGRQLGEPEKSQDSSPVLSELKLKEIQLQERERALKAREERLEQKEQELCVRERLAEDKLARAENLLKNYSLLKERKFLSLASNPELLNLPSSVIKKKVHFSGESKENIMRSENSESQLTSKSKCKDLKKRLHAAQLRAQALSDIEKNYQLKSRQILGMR

The target of a further test is T3, Ron(h) (human, UniProt Q04912 983-1400, limits assumed).
T3 sequence (looked up): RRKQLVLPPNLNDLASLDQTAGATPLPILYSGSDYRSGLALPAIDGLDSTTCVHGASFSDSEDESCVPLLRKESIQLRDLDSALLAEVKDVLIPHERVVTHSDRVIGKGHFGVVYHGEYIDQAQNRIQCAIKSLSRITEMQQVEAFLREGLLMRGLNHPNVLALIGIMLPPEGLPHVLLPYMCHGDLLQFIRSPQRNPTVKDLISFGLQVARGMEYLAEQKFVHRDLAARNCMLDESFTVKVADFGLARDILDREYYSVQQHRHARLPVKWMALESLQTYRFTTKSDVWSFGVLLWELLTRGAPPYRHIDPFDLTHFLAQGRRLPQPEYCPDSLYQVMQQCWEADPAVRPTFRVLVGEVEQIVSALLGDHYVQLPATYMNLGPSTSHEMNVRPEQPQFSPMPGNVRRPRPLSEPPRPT

In a further test the target is T4, Rse(h) (human, UniProt Q06418 451-890, limits assumed).
T4 sequence (looked up): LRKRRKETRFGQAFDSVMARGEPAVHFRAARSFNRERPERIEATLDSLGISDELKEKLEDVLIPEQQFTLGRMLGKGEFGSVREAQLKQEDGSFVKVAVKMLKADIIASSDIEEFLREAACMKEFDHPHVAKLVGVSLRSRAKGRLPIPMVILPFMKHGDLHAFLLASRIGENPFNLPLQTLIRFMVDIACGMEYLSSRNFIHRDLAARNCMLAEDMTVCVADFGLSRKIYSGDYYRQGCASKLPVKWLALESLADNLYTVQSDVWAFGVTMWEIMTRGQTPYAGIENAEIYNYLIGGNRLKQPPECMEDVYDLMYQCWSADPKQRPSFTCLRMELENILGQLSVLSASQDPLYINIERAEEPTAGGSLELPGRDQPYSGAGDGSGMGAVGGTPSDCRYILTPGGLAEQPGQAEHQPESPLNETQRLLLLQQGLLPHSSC

Another test has as its target T5, ULK3(h) (human, UniProt Q6PHR2 1-472, limits assumed).
T5 sequence (looked up): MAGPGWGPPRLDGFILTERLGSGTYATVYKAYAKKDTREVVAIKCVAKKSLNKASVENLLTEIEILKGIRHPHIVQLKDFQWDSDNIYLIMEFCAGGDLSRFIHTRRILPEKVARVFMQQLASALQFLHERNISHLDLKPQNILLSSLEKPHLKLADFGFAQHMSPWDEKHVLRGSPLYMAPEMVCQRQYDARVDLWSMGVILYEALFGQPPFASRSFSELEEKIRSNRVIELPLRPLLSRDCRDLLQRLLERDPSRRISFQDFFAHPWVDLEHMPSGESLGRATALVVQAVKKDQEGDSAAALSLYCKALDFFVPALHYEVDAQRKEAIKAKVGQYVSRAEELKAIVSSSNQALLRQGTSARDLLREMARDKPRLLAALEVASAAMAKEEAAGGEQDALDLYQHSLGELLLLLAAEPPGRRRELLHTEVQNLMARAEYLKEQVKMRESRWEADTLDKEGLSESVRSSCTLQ

Chain of Pyk2 (h) (Q14289 whole entry): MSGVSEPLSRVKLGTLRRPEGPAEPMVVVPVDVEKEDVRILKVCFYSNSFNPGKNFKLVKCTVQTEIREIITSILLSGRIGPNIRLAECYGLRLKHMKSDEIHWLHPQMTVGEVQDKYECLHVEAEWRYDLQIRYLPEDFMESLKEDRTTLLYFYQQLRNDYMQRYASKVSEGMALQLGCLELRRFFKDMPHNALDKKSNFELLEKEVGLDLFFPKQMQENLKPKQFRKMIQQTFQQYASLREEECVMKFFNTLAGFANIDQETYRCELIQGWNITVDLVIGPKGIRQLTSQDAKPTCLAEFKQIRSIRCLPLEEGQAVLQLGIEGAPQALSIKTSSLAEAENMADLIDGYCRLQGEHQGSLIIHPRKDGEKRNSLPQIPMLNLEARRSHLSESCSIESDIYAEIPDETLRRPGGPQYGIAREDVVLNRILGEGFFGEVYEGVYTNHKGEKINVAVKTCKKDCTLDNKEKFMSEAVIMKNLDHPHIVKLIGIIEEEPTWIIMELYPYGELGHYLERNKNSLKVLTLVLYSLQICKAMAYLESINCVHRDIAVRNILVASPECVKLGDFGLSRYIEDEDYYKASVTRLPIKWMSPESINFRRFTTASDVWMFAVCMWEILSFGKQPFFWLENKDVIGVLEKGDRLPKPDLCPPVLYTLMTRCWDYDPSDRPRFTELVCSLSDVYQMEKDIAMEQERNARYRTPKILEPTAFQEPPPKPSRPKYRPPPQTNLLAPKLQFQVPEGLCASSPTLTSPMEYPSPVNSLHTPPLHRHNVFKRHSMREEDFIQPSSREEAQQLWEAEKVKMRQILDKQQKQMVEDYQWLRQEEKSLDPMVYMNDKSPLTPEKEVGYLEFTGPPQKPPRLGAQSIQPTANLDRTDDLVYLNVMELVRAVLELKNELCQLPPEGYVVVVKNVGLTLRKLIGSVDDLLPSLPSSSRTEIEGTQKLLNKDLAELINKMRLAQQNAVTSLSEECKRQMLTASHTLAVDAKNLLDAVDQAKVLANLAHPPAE
Chain of FGFR2(h) (P21802 456-770 limits assumed): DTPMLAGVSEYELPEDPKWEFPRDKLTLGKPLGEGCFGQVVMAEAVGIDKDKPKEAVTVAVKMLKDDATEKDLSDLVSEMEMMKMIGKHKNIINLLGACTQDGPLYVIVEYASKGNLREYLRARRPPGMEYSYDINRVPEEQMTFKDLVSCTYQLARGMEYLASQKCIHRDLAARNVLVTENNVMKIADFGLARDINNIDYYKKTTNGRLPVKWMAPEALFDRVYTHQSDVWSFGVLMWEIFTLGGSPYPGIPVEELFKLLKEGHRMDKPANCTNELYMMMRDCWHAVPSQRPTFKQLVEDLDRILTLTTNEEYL
Chain of CLK2(h) (P49760 whole entry): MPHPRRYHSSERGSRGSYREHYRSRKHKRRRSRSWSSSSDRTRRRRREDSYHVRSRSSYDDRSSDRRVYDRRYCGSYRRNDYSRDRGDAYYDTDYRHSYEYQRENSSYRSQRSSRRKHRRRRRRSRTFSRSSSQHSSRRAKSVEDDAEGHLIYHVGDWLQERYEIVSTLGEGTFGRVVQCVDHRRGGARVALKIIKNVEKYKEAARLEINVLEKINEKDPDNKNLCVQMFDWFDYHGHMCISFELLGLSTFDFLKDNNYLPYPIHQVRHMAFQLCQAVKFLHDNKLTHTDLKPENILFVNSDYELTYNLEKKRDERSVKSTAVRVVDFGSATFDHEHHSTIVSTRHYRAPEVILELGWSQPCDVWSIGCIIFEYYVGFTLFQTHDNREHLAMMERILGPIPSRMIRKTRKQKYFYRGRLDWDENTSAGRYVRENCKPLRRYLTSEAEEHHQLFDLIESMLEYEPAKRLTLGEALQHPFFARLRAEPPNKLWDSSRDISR
Chain of cKit(h) (P10721 544-976): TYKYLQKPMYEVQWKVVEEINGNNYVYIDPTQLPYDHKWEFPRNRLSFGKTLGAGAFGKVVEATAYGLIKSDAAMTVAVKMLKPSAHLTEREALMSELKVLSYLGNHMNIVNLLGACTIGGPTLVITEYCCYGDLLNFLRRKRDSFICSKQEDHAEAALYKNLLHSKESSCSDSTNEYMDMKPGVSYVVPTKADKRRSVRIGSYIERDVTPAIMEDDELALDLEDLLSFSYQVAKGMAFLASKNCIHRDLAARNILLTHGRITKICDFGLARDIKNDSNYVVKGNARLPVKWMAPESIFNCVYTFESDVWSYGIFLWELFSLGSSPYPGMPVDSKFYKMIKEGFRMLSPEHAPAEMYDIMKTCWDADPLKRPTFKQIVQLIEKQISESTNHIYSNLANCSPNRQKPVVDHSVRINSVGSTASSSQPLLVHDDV
Chain of IR(h), activated (P06213 1005-1310 limits assumed): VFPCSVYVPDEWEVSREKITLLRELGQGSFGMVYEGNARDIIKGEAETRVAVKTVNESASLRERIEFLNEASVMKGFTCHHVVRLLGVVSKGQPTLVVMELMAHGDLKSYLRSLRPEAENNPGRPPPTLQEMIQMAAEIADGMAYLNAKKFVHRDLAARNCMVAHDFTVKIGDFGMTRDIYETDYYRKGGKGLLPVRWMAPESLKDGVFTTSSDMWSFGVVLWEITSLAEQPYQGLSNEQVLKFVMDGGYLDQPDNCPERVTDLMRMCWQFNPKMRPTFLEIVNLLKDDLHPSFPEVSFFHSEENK
Chain of SIK(h) (P57059 whole entry): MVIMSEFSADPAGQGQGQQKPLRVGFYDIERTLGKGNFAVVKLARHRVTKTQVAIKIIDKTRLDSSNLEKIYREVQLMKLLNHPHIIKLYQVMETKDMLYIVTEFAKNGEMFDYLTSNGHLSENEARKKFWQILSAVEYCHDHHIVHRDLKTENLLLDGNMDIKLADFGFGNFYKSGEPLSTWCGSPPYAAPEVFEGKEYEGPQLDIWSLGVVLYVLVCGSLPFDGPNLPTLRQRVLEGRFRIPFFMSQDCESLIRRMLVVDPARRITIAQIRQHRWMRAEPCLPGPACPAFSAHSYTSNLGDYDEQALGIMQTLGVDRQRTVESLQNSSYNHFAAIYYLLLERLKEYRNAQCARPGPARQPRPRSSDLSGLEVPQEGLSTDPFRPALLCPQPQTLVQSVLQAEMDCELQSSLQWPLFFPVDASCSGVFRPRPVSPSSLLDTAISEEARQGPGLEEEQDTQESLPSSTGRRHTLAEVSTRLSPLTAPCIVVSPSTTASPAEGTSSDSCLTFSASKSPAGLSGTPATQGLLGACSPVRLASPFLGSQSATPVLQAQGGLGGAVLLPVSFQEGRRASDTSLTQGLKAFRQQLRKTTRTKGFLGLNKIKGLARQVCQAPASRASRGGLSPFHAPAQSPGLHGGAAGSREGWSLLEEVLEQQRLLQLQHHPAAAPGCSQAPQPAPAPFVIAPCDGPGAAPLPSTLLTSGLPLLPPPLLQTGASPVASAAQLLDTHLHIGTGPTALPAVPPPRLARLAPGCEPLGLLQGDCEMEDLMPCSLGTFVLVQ
Chain of PDGFRα(D842V)(h) (P16234 550-1089 D842V limits assumed): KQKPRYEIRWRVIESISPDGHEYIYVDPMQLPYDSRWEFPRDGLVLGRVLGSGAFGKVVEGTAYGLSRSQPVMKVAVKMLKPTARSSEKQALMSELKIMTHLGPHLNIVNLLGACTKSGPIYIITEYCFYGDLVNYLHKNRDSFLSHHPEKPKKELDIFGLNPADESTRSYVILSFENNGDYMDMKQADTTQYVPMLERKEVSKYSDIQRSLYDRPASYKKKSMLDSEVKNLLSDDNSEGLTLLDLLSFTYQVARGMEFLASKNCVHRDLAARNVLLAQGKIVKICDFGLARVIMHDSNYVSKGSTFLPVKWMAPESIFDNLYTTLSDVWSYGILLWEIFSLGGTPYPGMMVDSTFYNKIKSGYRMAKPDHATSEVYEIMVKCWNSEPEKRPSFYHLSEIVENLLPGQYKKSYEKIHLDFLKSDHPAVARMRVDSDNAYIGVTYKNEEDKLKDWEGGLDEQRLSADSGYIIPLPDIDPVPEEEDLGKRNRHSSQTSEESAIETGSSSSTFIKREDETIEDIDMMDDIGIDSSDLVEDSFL
Chain of p70S6K(h) (P23443 1-421): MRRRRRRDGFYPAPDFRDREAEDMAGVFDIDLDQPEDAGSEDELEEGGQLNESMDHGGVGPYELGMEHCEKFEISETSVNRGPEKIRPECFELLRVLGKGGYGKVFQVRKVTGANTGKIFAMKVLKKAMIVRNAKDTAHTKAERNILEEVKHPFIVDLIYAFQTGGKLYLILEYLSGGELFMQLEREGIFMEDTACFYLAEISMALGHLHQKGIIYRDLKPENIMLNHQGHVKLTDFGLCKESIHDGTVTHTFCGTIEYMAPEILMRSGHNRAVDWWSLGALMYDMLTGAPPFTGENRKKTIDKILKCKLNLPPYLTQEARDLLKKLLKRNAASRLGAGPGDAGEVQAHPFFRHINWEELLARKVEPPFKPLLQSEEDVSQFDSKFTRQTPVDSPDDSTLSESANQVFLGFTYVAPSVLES
Chain of FGFR1(h) (P11362 456-765 limits assumed): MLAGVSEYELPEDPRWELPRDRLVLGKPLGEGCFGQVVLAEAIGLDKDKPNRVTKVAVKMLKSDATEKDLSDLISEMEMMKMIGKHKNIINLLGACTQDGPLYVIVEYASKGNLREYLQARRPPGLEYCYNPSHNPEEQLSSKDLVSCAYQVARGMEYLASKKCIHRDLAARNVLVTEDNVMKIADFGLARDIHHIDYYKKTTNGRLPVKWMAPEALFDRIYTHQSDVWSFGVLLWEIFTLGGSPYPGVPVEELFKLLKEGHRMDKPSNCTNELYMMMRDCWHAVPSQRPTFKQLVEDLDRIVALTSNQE

Consider FAKLAARLYRKALARQLGVAA [MMI-0300], for which the “% activity, 100 µM” value with Fms(Y969C)(h) was 72%; with IR(h), activated, 79%; with NEK2(h), 78%; in the test with p70S6K(h), 35%; with PDGFRα(D842V)(h), 114%; in the test with Pyk2 (h), 47%. For the same molecule, the “% activity, 100 µM” value in the test with Ron(h) was 93%; with Rse(h) it was 88%; with SIK(h) it was 66%; with ULK3(h) it was 167%; with CLK2(h) it was 103%; with cKit(h), 53%. In addition, the “% activity, 100 µM” value amounted to 55% with FGFR1(h) and 14% with FGFR2(h).

With KAFAKLAARLYRKALARQLGVAA [MMI-0400], the “% activity, 100 µM” value came to 91% with Fms(Y969C)(h); 59% in the test with IR(h), activated; 61% in the test with NEK2(h); 33% in the test with p70S6K(h); 118% with PDGFRα(D842V)(h); 34% with Pyk2 (h). For the same molecule, the “% activity, 100 µM” value with Ron(h) stood at 79%; with Rse(h) it was 89%; with SIK(h) it was 68%; with ULK3(h), 147%; in the test with CLK2(h), 116%; with cKit(h) it was 43%. The “% activity, 100 µM” value came to 59% with FGFR1(h) and 18% in the test with FGFR2(h).
